Assay results reported in patent US20170166895.

Assays:
[1] = molecular target: T1, Complement component 3 (C3) (Homo sapiens) (UniProt P01024+P01024); assay: inhibition; conditions: P = NapdU (all U), 3'-3' idT, hemolysis, 20 nM C3, GVB++, 37 C
[2] = molecular target: T1, Complement component 3 (C3) (Homo sapiens); assay: filter; conditions: all U = NapdU, 3'-3' idT, SB18T0.01, 37C
[3] = 2'-OMe at 1,2,3,5,7,10,13,26,27,28

T1 sequence (P01024 23-667, chain 1 of 2): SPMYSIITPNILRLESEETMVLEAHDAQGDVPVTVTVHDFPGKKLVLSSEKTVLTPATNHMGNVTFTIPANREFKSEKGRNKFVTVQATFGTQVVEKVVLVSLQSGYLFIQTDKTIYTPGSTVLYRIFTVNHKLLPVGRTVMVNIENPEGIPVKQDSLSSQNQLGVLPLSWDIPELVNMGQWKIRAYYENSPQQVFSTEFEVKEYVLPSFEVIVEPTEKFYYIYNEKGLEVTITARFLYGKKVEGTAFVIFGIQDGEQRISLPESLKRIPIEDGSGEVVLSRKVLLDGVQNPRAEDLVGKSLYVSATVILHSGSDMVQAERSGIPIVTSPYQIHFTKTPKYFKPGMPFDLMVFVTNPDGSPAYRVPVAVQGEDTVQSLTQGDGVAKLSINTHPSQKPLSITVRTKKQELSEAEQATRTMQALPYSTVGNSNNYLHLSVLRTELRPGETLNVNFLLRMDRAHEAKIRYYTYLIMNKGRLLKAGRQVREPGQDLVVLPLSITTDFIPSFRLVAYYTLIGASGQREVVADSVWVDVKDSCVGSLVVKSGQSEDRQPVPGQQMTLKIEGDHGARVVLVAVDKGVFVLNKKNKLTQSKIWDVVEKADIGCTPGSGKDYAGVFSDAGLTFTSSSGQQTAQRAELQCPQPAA
T1 sequence (P01024 672-1663, chain 2 of 2): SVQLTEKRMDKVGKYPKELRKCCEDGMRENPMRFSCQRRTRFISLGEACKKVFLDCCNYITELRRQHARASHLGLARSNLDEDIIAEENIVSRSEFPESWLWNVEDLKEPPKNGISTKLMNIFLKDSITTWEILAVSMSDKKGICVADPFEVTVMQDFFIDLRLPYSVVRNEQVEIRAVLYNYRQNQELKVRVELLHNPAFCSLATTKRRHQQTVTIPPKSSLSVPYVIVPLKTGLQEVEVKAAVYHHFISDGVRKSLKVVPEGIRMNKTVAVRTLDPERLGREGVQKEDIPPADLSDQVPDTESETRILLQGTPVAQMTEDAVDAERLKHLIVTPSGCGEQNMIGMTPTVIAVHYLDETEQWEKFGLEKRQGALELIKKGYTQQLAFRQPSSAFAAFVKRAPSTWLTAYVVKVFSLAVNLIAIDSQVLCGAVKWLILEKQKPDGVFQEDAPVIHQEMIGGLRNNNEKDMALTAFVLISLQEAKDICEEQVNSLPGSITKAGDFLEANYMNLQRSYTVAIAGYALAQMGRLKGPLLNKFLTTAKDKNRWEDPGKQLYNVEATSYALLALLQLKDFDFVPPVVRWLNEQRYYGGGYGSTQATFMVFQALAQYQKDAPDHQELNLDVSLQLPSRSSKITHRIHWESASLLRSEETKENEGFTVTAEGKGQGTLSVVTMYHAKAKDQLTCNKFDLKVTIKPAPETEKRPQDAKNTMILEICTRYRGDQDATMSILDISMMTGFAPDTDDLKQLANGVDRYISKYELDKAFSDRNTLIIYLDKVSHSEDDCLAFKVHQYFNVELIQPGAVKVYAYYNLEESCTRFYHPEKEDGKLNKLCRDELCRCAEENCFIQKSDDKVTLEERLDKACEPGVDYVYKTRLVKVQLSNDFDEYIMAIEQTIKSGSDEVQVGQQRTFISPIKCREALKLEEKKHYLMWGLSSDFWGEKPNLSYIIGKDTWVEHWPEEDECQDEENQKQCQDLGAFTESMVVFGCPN

| Sequence | IC50 [1, 3] | Kd [2, 3] | IC50 ([1]; 2'-OMe at 1,2,3,5,7,9,10,13,19,20,22,23,24,25,26,27,28, C3a release in 34% serum IC50 3 uM) | Kd ([2]; 2'-OMe at 1,2,3,5,7,9,10,13,19,20,22-28) |
| --- | --- | --- | --- | --- |
| CGGUGACUCAAUAGUCCGUACGUUCCCG [8491-94_90] | 18.9 nM | 0.00424 nM | – | – |
| CGGUGACUCAAUAGUCCGUACGUUCCCG [8491-94_97] | – | – | 15.6 nM | 0.0549 nM |
